Laboratory results from US20220064254A1 (Janssen / Centocor, published 2022).
Numbering of substitutions follows the chain as printed.

B1: CAR19 (KL2B359_HL) (other)
chain: QVQLQESGPGLVKPSQTLSLTCTVSGNSITSDYAWNWIRQFPGKRLEWIGYISYSGSTTYNPSLKSRVTISRDTSKNQFSLKLSSVTAADTAVYYCATGYYYGSGFWGQGTLVTVSSGGSEGKSSGSGSESKSTGGSEIVLTQSPATLSLSPGERATLSCRASESVEYFGTSLMHWYQQKPGQPPRLLIYAASNVESGIPARFSGSGSGTDFTLTISSVEPEDFAVYFCQQTRKVPYTFGGGTKVEIKTSTPAPRPPTPAPTIASQPLSLRPEACRPAAGGAVHTRGLDFACDIYIWAPLAGTCGVLLLSLVITLYCKRGRKKLLYIFKQPFMRPVQTTQEEDGCSCRFPEEEEGGCELRVKFSRSADAPAYKQGQNQLYNELNLGRREEYDVLDKRRGRDPEMGGKPRRKNPQEGLYNELQKDKMAEAYSEIGMKGERRRGKGHDGLYQGLSTATKDTYDALHMQALPPR
notes: also called KL2B359 HL CAR; rehumanized 11B6 HL CAR
B2: CAR17 (KL2B413_HL) (other)
chain: EVQLVESGGGLVQPGGSLRLSCAASGFTFSSYWMTWVRQAPGKGLEWVANIKQDGSERYYVDSVKGRFTISRDNAKNSLYLQMNSLRAEDTAVYYCARDQNYDILTGHYGMDVWGQGTTVTVSSGGSEGKSSGSGSESKSTGGSEIVLTQSPSFLSASVGDRVTITCRASQGISSYLSWYQQKPGKAPKLLIYATSTLQSGVPSRFSGSGSGTEFTLTISSLQPEDFATYYCQQLNSYPRTFGQGTKVEIKTSTPAPRPPTPAPTIASQPLSLRPEACRPAAGGAVHTRGLDFACDIYIWAPLAGTCGVLLLSLVITLYCKRGRKKLLYIFKQPFMRPVQTTQEEDGCSCRFPEEEEGGCELRVKFSRSADAPAYKQGQNQLYNELNLGRREEYDVLDKRRGRDPEMGGKPRRKNPQEGLYNELQKDKMAEAYSEIGMKGERRRGKGHDGLYQGLSTATKDTYDALHMQALPPR
notes: also called KL2B413 HL CAR; pBD000091628
B3: CAR9 (LH_LCB7_HCG5_20AA) (other)
chain: DIVLTQSPDSLAVSLGERATINCKASESVEYFGTSLMHWYQQKPGQPPKLLIYAASNRESGVPDRFSGSGSGTDFTLTISSVQAEDVAVYYCQQTRKVPYTFGQGTKLEIKGGSEGKSSGSGSESKSTGGSQVQLQESGPGLVKPSDTLSLTCAVSGNSITSDYAWNWIRQFPGKGLEWMGYISYSGSTTYNPSLKSRVTISRDTSKNQFSLKLSSVTPVDTAVYYCATGYYYGSGFWGQGTLVTVSSTSTPAPRPPTPAPTIASQPLSLRPEACRPAAGGAVHTRGLDFACDIYIWAPLAGTCGVLLLSLVITLYCKRGRKKLLYIFKQPFMRPVQTTQEEDGCSCRFPEEEEGGCELRVKFSRSADAPAYKQGQNQLYNELNLGRREEYDVLDKRRGRDPEMGGKPRRKNPQEGLYNELQKDKMAEAYSEIGMKGERRRGKGHDGLYQGLSTATKDTYDALHMQALPPR
notes: also called construct 9; pDR000083444
B4: CAR6 (LH_LCHumanized_HCF3_20AA) (other)
chain: B3 chain with V82L, M180I
notes: also called construct 6; pDR000083440
B5: CAR7 (LH_LCHumanized_HCG5_20AA) (other)
chain: B3 chain with V82L
notes: also called construct 7; pDR000083441
B6: CAR8 (LH_LCB7_HCF3_20AA) (other)
chain: B3 chain with M180I
notes: also called construct 8; pDR000083443
B7: CAR10 (LH_LCD6_HCF3_20AA) (other)
chain: B3 chain with S80Q, A88S, Y91F, M180I
notes: also called construct 10; pDR000083446
B8: CAR5 (LH_LCD6_HCG5_20AA) (other)
chain: B3 chain with S80Q, A88S, Y91F
notes: also called construct 5; pDR000083438
B9: CAR4 (HL_HCG5_LCB7_20AA) (other)
chain: QVQLQESGPGLVKPSDTLSLTCAVSGNSITSDYAWNWIRQFPGKGLEWMGYISYSGSTTYNPSLKSRVTISRDTSKNQFSLKLSSVTPVDTAVYYCATGYYYGSGFWGQGTLVTVSSGGSEGKSSGSGSESKSTGGSDIVLTQSPDSLAVSLGERATINCKASESVEYFGTSLMHWYQQKPGQPPKLLIYAASNRESGVPDRFSGSGSGTDFTLTISSVQAEDVAVYYCQQTRKVPYTFGQGTKLEIKTSTPAPRPPTPAPTIASQPLSLRPEACRPAAGGAVHTRGLDFACDIYIWAPLAGTCGVLLLSLVITLYCKRGRKKLLYIFKQPFMRPVQTTQEEDGCSCRFPEEEEGGCELRVKFSRSADAPAYKQGQNQLYNELNLGRREEYDVLDKRRGRDPEMGGKPRRKNPQEGLYNELQKDKMAEAYSEIGMKGERRRGKGHDGLYQGLSTATKDTYDALHMQALPPR
notes: also called construct 4; pDR000083437
B10: CAR2 (HL_HCG5_LCHumanized_20AA) (other)
chain: B9 chain with V219L
notes: also called construct 2
B11: CAR1 (HL_HCG5_LCD6_20AA) (other)
chain: B9 chain with S217Q, A225S, Y228F
notes: also called construct 1; pDR000083431
B12: CAR3 (HL_HCF3_LCB7_20AA) (other)
chain: B9 chain with M49I
notes: also called construct 3; pDR000083436
B13: KL2B242 (antibody, human IgG4 S228P, lambda, F234A L235A, V domains shown)
VH: QVQLQESGPGLVKPSETLSLTCTVSGGSISSYYWSWLRQPAGSGLEWIGRLYVSGFTNYNPSLKSRVTLSLDPSRNQLSLKLSSVTAADTAVYYCAGDSGNYWGWFDPWGQGTLVTVSS
VL: SYELTQPPSVSVSPGETASITCSGDQLGENYACWYQQKPGQSPVLVIYQDSKRPSGIPERFSGSNSGNTATLTISGTQALDEADYYCQAWDNSIVVFGGGTKLTVLG
notes: also called KL2B242 (Fab); KL2B242 Fab
B14: KL2B30 (antibody, V domains shown)
VH: QVQLQESGPGLVKPSETLSLTCTVSGGSISSYYWSWIRQPPGKGLEWIGYIYYSGSTNYNPSLKSRVTISVDTSKNQFSLKLSSVTAADTAVYYCAGTTIFGVVTPNFYYGMDVWGQGTTVTVSS
VL: DIQMTQSPSFLSASVGDRVTITCRASQGISSYLAWYQQKPGKAPKFLIYAASTLQSGVPSRFSGSGSGTEFTLTISSLQPEDFATYYCQQLNSYPLTFGGGTKVEIKR
notes: also called KL2B30 (Fab); KL2B30 Fab
B15: KL2B53 (antibody, V domains shown)
VH: EVQLVESGGGVVQPGRSLRLSCVASGFTFSSYDIHWVRQAPGKGLEWVAIISYDGSKKDYTDSVKGRFTISRDNSKNTLYLQMDSLRVEDSAVYSCARESGWSHYYYYGMDVWGQGTMVTVSS
VL: DIVMTQSPSSLSASVGDRVTITCRASQDISNYLAWYQQKPGKVPKFLIYAASTLHSGVPSRFSGSGSGTDFTLTISSLQPEDVATYYCQKYNSAPYTFGQGTRLEIKR
notes: also called KL2B53 (Fab); KL2B53 Fab
B16: KL2B467 (antibody, V domains shown)
VH: QVQLVESGGGVVQPGRSLRLSCAASGFTFSYYGMHWVRQAPGKGLEWVAFISYDGSNKYYADSVKGRFTISRDNSKNTLYLQMNSLRAEDTAVYYCAHLPYSGSYWAFDYWGQGTQVTVSS
VL: QSVLTQPPSVSVAPGQTASITCGGDNIGSKSVHWYQQKPGQAPVLVVYDNSDRPSGIPERFSGSNSGTTATLTISRVEAGDEADYYCQVWDSSSDHPVVFGGGTKVTVLG
notes: also called KL2B467 (Fab); KL2B467 Fab
B17: KL2B494 (antibody, V domains shown)
VH: QVQLVESGGGLVQPGGSLRLSCAASGFTFSHYAMSWVRQAPGKGLEWVSTIGGSGGSTYYADSVKGRFTISRDNSKNTLYLQMNSLRAEDTAVYYCAKPHIVMVTALLYDGMDVWGQGTMVTVSS
VL: SSELTQPPSVSVAPGQTARITCGGNNIGSKSVHWYQQKPGQAPVLVVYDDSDRPSGIPERFSGSNSGNTATLTISRVEAGDEADYYCQVWDSSSDHVVFGGGTKLTVLG
notes: also called KL2B494 (Fab); KL2B494 Fab
B18: KL2B359 (scFv) (scFv, V domains shown)
VH: QVQLQESGPGLVKPSQTLSLTCTVSGNSITSDYAWNWIRQFPGKRLEWIGYISYSGSTTYNPSLKSRVTISRDTSKNQFSLKLSSVTAADTAVYYCATGYYYGSGFWGQGTLVTVSS
VL: EIVLTQSPATLSLSPGERATLSCRASESVEYFGTSLMHWYQQKPGQPPRLLIYAASNVESGIPARFSGSGSGTDFTLTISSVEPEDFAVYFCQQTRKVPYTFGGGTKVEIK
notes: also called Clone KL2B359; rehumanized 11B6
B19: KL2B413 (scFv) (scFv, V domains shown)
VH: EVQLVESGGGLVQPGGSLRLSCAASGFTFSSYWMTWVRQAPGKGLEWVANIKQDGSERYYVDSVKGRFTISRDNAKNSLYLQMNSLRAEDTAVYYCARDQNYDILTGHYGMDVWGQGTTVTVSS
VL: EIVLTQSPSFLSASVGDRVTITCRASQGISSYLSWYQQKPGKAPKLLIYATSTLQSGVPSRFSGSGSGTEFTLTISSLQPEDFATYYCQQLNSYPRTFGQGTKVEIK

target: hK2 on target cells (VCaP, LNCaP/hK2, LNCaP, C4-2B) (human, UniProt P20151 19-261); experiment: cell-based or functional assay
Sequence (P20151 19-261): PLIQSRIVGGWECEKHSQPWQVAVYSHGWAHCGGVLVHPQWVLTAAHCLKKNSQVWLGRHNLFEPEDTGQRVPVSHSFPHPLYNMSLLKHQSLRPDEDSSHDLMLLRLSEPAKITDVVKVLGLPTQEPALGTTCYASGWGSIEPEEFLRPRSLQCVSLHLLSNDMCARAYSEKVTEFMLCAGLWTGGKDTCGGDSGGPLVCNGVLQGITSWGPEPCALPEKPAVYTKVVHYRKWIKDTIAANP

Binder	tumor cell growth inhibition (TGI, %) of hK2 positive VCaP cells, real-time IncuCyte killing assay, 96 hours [%]
B1	~100
B2	~100

target: T1, biotinylated recombinant hK2 protein (human, UniProt P20151 25-261, biotin label (EZ-Link Sulfo-NHS-LC-Biotin)); experiment: flow cytometry; JNL (Jurkat NFAT-luciferase) cells transduced with the CAR, stained with biotinylated hK2 then streptavidin-PE; UTD control gate 0.021
T1 construct: In-house biotin-labelled recombinant hK2 used as the flow cytometry reagent; also called biotinylated hK2; Biotin-Hk2 protein
T1 sequence (P20151 25-261): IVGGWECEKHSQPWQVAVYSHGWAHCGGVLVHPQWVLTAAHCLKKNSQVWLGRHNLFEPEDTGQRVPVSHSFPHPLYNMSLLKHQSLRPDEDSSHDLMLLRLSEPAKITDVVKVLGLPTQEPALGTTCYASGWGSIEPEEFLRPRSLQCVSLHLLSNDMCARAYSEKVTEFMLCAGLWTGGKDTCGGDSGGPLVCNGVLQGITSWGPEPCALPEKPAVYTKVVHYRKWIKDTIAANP

Binder	percent of cells in the PE-positive gate (hK2 CAR) [%]
B3	68
B4	70.3
B5	71.9
B6	66.3
B7	60
B8	66.4
B9	64.3
B10	65.4
B11	61.9
B12	64.3

target: T2, soluble human Kallikrein-2 (hK2) (human, UniProt P20151 25-261); experiment: SPR; antibody captured on anti-Fc sensor chip, soluble hK2 injected; 1:1 Langmuir fit, KD = koff/kon
T2 construct: The construct used in SPR, ELISA and MSD screening is not defined; the stated signal peptide (1-18) is left out, and the pro-peptide (19-24) may or may not have been present; also called KLK2; soluble hK2
T2 sequence (P20151 25-261): as above

Binder	Kd [nM]
B13	0.04
B14	0.46
B15	0.08
B16	0.078
B17	0.053
B18	0.7 to 1
B19	34.3

target: T1, biotinylated recombinant hK2 protein; experiment: flow cytometry; primary human T cells lentivirally transduced with the CAR (MOI 3), day 14, stained with biotinylated hK2 (1 ug/ml) then streptavidin-PE; UTD control gate 0.065

Binder	percent of CD3+ T cells in the PE-positive gate (hK2 CAR) [%]
B1	45.1
B2	56

target: T1, biotinylated recombinant hK2 protein; experiment: flow cytometry; CAR-transduced JNL cells stained with biotinylated hK2 and streptavidin-PE

Binder	% of JNL cells stained with biotinylated hK2 (reported as CAR expression) [%]
B1	46
B2	73.7

target: T1, biotinylated recombinant hK2 protein; experiment: flow cytometry; primary human T cells lentivirally transduced with the CAR (MOI 3), day 14, stained with biotinylated hK2 (1 µg/ml) then streptavidin-PE; UTD control gate 0.086

Binder	percent of CD3+ T cells in the PE-positive gate (hK2 CAR) [%]
B3	30.6
B4	27.8
B5	35
B6	21.5
B7	20.1
B8	17.9
B9	42.7
B10	23.6
B11	20
B12	29.4
